The results in this text go back to patent US20140086913A1 (Gilead, published 2014).

For test [1], the target named is DDR1 endogenously expressed on human cancer cell lines (T47D, HCT-116, A431) (human) (UniProt Q08345). The test can be described thus: cell-based or functional assay.
The target is the same in test [2]. The test can be described thus: flow cytometry, T47D cells.
Test [3] has the same target. In words: flow cytometry, HCT116 cells.
Test [4] addresses human DDR1 (isoform B) stably expressed on HEK293 cells (human) (UniProt Q08345). The test can be described thus: flow cytometry, HEK293/hDDR1.
Test [5] concerns the target DDR1 with a ProLink Tag (PK) in engineered U20S cells (DiscoveRx), Q08345. The test can be described thus: cell-based or functional assay.
In test [6] the target is T1, human DDR2 stably expressed on HEK293 cells (human, UniProt Q16832 22-855).
T1 construct: whole, on cells; also called hDDR2
T1 sequence (looked up): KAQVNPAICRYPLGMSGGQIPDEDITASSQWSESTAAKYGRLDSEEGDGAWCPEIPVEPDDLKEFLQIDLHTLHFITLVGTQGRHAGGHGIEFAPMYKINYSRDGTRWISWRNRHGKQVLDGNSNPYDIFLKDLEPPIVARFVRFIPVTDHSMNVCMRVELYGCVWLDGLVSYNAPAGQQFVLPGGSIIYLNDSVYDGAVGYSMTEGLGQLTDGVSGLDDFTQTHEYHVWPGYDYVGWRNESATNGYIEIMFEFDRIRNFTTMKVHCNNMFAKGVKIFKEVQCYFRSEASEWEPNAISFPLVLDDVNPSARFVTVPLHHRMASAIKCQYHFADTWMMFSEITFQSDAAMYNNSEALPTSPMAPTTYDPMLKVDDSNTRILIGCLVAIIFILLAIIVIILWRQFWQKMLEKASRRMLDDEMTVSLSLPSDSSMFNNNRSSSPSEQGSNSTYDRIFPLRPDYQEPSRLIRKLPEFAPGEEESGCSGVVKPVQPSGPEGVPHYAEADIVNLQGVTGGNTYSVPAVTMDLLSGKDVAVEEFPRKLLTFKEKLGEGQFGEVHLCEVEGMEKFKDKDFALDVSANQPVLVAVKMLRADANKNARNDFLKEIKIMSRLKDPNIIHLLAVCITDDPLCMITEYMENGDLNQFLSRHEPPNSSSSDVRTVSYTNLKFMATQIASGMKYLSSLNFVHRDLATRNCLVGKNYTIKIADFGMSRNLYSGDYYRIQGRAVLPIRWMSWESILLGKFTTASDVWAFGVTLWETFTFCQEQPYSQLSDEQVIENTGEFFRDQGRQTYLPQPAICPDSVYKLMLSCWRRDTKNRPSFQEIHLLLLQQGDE
In words: flow cytometry, HEK293/hDDR2. The protocol: Additional monoclonal antibodies were obtained from individual hybridomas in Example 1 and were characterized for their properties.
Cells were cultured in DMEM with 10% FBS and 0.8 mg/mL hygromycin. When cells reached 60-80% confluence, they were centrifuged at 1,200 rpm for 5 minutes, suspended in FACS buffer (1×PBS, 1% BSA), and aliquoted into a 96-well plate at 1×10⁶ cells per well. The anti-DDR1 monoclonal antibodies or appropriate isotype controls at 2 μg per 1×10⁶ cells were added and incubated at 4° C. for 1 hr. The cells were washed twice with FACS buffer then stained with the anti-IgG-PE secondary antibody at 10 μL per well at 4° C. for 1 hr. The cells were washed again and measured for the MFI values or signals using flow cytometry (LSR Fortessa instrument, BD Biosciences). Background MFI signals from vector-only cells (i.e. no DDR1 or DDR2 expression) was subtracted from those of the cells treated with antibodies. Higher MFI values or signals indicated increased binding or specificity of the anti-DDR1 antibodies to the DDR1 on the cell surface.

In test [7] the target is T2, DDR1ECD-Fc (R&D Systems, Catalog #2396-DR) (human, UniProt Q08345 21-416).
T2 construct: range 21-416; construct as described for the bought immunogen; also called human ECD-DDR1-Fc; Fc-ECD-DR1; not shown: human IgG1, Pro100-Lys330
In words: ELISA, coated antigen, apparent KD. The protocol: (§1) In this study, ELISA was used to determine the affinity of murine anti-DDR1 monoclonal antibodies to the extracellular domain (ECD) of either human or murine DDR1. A 96-well MaxiSorb ELISA plates (Nunc) were coated with 2 μg/mL of one of three purified recombinant tagged proteins: human ECD-DDR1-His protein, human ECD-DDR1-Fc, or mouse ECD-DDR1-Fc overnight at 4° C. The next day, the plates were blocked with 5% bovine serum albumin (BSA, Jackson Immunoresearch) prior to the addition of serially diluted anti-DDR1 monoclonal antibodies. Antibodies were incubated for 1 hr at room temperature. The binding of antibody to the antigen was detected by incubating samples with anti-mouse IgG-HRP (horse radish peroxidase) secondary detection antibody (Jackson Immunoresearch) for 1 hr. After a washing step, 3,3′,5,5″-tetramethylbenzidine (TMB) reagent was added for HRP to produce a colorimetric signal. The reaction was stopped by addition of 1M hydrochloric acid after 2 minutes and measured for absorbance (optical density, OD) at 450λ on a Molecular Devices plate reader. The OD values were plotted against antibody concentration and fitted using a using 4-parameter logistic equation in SoftMax software (Molecular Devices). The apparent affinity constant (KD) was taken from the C-parameter of the equation (y=(A−D)/(1+(x/C)̂B)+D). The apparent affinity constants were summarized (in some cases shown as average values) in Table 10 below. Lower value indicates higher binding affinity of the antibody to the antigen.

Test [8] has as its target T3, human ECD-DDR1-His protein (human, UniProt Q08345 21-416).
T3 construct: also called huDDR1-ECD-His; DDR1ECD-6Xhis; not shown: His tag
In words: ELISA, coated antigen, apparent KD. The protocol:
as §1

In test [9] the target is T4, mouse ECD-DDR1-Fc (mouse; human, UniProt Q03146 22-414).
T4 construct: also called mouse DDR1-ECD; wild-type mouse DDR1-ECD; not shown: human IgG1 Fc of the vector pFuse-hIgG1-Fc1 (Invivogen)
T4 sequence: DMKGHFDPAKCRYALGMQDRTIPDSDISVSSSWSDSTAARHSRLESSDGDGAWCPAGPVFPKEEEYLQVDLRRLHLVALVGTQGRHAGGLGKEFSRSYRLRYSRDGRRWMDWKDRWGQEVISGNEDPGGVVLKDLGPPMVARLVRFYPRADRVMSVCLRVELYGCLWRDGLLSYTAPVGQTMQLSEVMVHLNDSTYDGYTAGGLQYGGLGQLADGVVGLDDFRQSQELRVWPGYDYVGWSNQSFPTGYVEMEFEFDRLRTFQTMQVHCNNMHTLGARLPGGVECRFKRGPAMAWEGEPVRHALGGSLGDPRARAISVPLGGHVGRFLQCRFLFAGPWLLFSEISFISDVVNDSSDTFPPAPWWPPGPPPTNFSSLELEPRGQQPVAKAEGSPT
The test can be described thus: ELISA, coated antigen. The protocol:
as §1

human DDR1 (isoform B) stably expressed on HEK293 cells (human), sequence (Q08345 19-913): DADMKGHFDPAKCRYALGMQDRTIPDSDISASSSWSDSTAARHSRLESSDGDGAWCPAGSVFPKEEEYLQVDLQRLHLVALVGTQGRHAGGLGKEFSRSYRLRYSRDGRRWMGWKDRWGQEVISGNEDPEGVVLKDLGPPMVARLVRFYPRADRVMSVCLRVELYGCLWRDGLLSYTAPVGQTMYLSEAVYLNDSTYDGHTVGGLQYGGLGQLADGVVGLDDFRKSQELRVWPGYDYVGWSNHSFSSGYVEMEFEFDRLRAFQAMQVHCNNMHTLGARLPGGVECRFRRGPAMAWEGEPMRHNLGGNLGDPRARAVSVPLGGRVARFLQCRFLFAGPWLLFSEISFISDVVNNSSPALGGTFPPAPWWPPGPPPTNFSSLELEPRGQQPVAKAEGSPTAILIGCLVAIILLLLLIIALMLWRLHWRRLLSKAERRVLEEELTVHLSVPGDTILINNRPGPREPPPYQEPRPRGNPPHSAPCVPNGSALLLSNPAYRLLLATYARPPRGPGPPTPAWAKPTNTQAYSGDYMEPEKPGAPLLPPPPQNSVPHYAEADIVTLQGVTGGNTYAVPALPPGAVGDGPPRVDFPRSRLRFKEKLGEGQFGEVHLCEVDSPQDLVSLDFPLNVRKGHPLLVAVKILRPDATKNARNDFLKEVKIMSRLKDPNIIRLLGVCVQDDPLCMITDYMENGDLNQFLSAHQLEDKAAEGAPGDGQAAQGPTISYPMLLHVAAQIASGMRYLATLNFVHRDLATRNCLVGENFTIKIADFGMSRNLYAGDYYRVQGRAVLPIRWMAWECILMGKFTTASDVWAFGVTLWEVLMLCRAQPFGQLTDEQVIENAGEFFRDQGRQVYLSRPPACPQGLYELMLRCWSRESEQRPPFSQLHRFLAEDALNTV

B1: AB2019 (antibody, V domains shown)
VH: QVQLKQSGPGLVQPSQSLSITCTVSGFSFTGYGIHWVRQSPGKGLEWLGVIWSGGITDYNAAFISRLSISMDSSKGQVFFKMNSLQANDTAIYYCARRSTTVVADYAMDYWGQGTSVTVSS
VL: SIVMTQTPKFLLVSAGDRVTITCKASQSVSNDVAWYQQKPGQSPKLLIYYASNRYTGVPDRFTGSGYGTDFTFTINTVQAEDLAVYFCQQDYTSPLTFGAGTKLELKR
notes: mouse hybridoma mAb
Molecule B1 had an EC50, DDR1 phospho-specific ELISA (T47D) in test [1] of 0.66 nM. In addition, the Maximal inhibition, DDR1 phospho-specific ELISA (T47D) in test [1] was determined as 100%. The NPI of cluster formation at 66 nM (A431 cells) in [1] was determined as 113%. For the same molecule, the MFI came out at 4950 MFI in [2], 1490 MFI in [3], 12600 MFI in test [4] and 244 MFI in test [6]. In addition, in [5], the Mean EC50, DDR1 Tyr513 phosphorylation assay (U20S) turned out to be 6.6 nM. Further, the results for the Kd in [7] and in test [8] were 0.324 nM and 0.372 nM, respectively.

B2: AB2032 (antibody, V domains shown)
VH: QVQLKQSGPGLVQPSQSLSITCTVSGFSFTGYGIHWVRQSPGKGLEWLGVIWSGGITDYNAAFISRLSISMDSSKGQVFFKMNSLQANDTAIYYCARRSTTVVADYAMDYWGQGTSVTVSS
VL: SIVMTQTPKFLLVSAGDRVTITCKASQSVSNDVAWYQQKPGQSPKLLIYYASNRYTGVPDRFTGSGYGTDFTFTINTVQAEDLAVYFCQQDYTSPLTFGAGTKLELKR
notes: mouse hybridoma mAb
For B2, the EC50, DDR1 phospho-specific ELISA (T47D) in [1] is 0.64 nM. Moreover, in test [1], the EC50, cluster formation assay (A431 cells) is 6.89 nM. Also, the Maximal inhibition, DDR1 phospho-specific ELISA (T47D) in test [1] is 100%. The NPI of cluster formation at 66 nM (A431 cells) in test [1] was 103%. The MFI in [2] worked out at 6820 MFI; in [3] it was 1900 MFI; in test [4], 13700 MFI; in test [6], 265 MFI. This molecule also yielded a Mean EC50, DDR1 Tyr513 phosphorylation assay (U20S) in test [5] of 7.72 nM. Further, the Kd in [7] worked out at 0.596 nM; in test [8] it was 0.5 nM.

B3: AB2003 (antibody, V domains shown)
VH: DVHLQESGPDLVKPSQSLSLTCTVTDYSITSGYGWHWIRQFPGNKLEWMGYIHYGGSTKYNSSLKSRISITRDTSKNQFFLQLKSVTTDDTGTYYCATSGNYGFAYWGQGTLVTVSA
VL: DIVLTQSPTSLAVSLGQRATMSCRASESVDDYGTSFMHWYQQKPGQPPKLLIYRASNLESGIPARFSGSGSRADFTLSINPVEPDDVATYYCQQSNEDPFTFGSGTKLEIKR
notes: mouse hybridoma mAb
With B3, in [1], the EC50, DDR1 phospho-specific ELISA (T47D) was found to be 0.42 nM. Also, the EC50, cluster formation assay (A431 cells) in test [1] came out at 2.38 nM. Moreover, the Maximal inhibition, DDR1 phospho-specific ELISA (T47D) in test [1] came out at 100%. Moreover, the NPI of cluster formation at 66 nM (A431 cells) in test [1] came out at 128%. Further, the MFI in test [2] is 6100 MFI; in test [3], 1410 MFI; in test [4], 15000 MFI; in test [6], 176 MFI. Besides, the binding result in [9] is reported as “no binding”. For the same molecule, the Mean EC50, DDR1 Tyr513 phosphorylation assay (U20S) in [5] was 3 nM. Moreover, the results for the Kd in test [7] and in test [8] were 0.216 nM and 0.153 nM, respectively.

B4: AB2040 (antibody, V domains shown)
VH: EVMLVESGGGLVKPGGSLKLSCAASGFTFSNYAMSWVRQTPEKRLEWVAKTSSGDTYTYYPDSVKGRFTISRDNAKNTLYLQMTSLRSEDTAIYYCARQDYYGITPWFFDVWGAGTTVTVSS
VL: ENVLTQSPAIMSASPGEKVTMTCRASSSVSSIYLHWYQQKSGASPKLWIYSTSNLASGVPARFSGSGSGTSYSLTITSVEAEDAATYYCQQYSGYPLITFGAGTKLELKR
notes: mouse hybridoma mAb
B4 returned an EC50, DDR1 phospho-specific ELISA (T47D) in test [1] of 0.34 nM. The NPI of cluster formation at 66 nM (A431 cells) in [1] came out at 3.6%. Further, the MFI in test [2] is 2810 MFI; in test [3], 2210 MFI; in test [4], 13700 MFI; in test [6], 308 MFI. Further, in test [9], the binding result is on record as “no binding”. The Kd in [7] was 0.254 nM; in test [8], 0.115 nM.

B5: AB2054 (antibody, V domains shown)
VH: EVMLVESGGGLVKPGGSLKLSCAASGFTFSNYAMSWVRQTPEKRLEWVAKTSSGDTYTYYPDSVKGRFTISRDNAKNTLYLQMTSLRSEDTAIYYCARQDYYGITPWFFDVWGAGTTVTVSS
VL: ENVLTQSPAIMSASPGEKVTMTCRASSSVSSIYLHWYQQKSGASPKLWIYSTSNLASGVPARFSGSGSGTSYSLTITSVEAEDAATYYCQQYSGYPLITFGAGTKLELKR
notes: mouse hybridoma mAb
In test [1], B5 came in with an EC50, DDR1 phospho-specific ELISA (T47D) of 0.36 nM. Further, the NPI of cluster formation at 66 nM (A431 cells) in [1] amounted to 3.6%. Moreover, the MFI in [2] is 5930 MFI; in [3], 1530 MFI; in test [4], 15500 MFI; in [6], 306 MFI. The binding result in test [9] is “no binding”. Further, the Kd was determined as 0.31 nM in [7] and 0.154 nM in test [8].

B6: AB2073 (antibody, V domains shown)
VH: EVMLVESGGGLVKPGGSLKLSCAASGFTFSNYAMSWVRQTPEKRLEWVAKTSSGDTYTYYPDSVKGRFTISRDNAKNTLYLQMTSLRSEDTAIYYCARQDYYGITPWFFDVWGAGTTVTVSS
VL: ENVLTQSPAIMSASPGEKVTMTCRASSSVSSIYLHWYQQKSGASPKLWIYSTSNLASGVPARFSGSGSGTSYSLTITSVEAEDAATYYCQQYSGYPLITFGAGTKLELKR
notes: mouse hybridoma mAb
As for B6, the EC50, DDR1 phospho-specific ELISA (T47D) in [1] stood at 0.45 nM. The NPI of cluster formation at 66 nM (A431 cells) in test [1] is -0.2%. For the same molecule, the MFI came to 6050 MFI in [2], 1690 MFI in test [3], 16200 MFI in test [4] and 410 MFI in [6]. In addition, in test [9], the binding result is recorded as “no binding”. In addition, the values for the Kd in test [7] and in [8] were 0.209 nM and 0.2 nM, respectively.
